The supplement of paper PMC7125110
± gives the standard error. This sample holds only a part of the variants without activity.

B1: glmS ribozyme (parent)
chain: AUAAAAGCGCCAGAACUACAGAAAUGUAGUUGACGAGGAGGAGGUUUAUCGAAUUUUCGGCGGAUGCCUCCAAA

Key:
Details in all cases: with glucosamine-6-phosphate
[1] = variants of: B1; assay: self-cleavage kobs at 160 uM GlcN6P; higher = faster cleavage; RNA array
Outline: (§1)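 Glucosamine-6-phosphate in HEPES/KCl/Mg(OAc)2 buffer, at 40 μM to 10 mM, was flowed over barcoded ribozyme variants transcribed in situ by E. coli RNA polymerase on sequenced MiSeq chips. Tracking was through a hybridised Cy3 probe at 37 °C. kobs, kcat and KM came from exponential decay fits and weighted Michaelis–Menten fits of normalised per-tile medians.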

[2] = variants of: B1; assay: self-cleavage kobs at 2500 uM GlcN6P; higher = faster cleavage; RNA array
Outline: as §1

[3] = variants of: B1; assay: self-cleavage kobs at 10000 uM GlcN6P; higher = faster cleavage; RNA array
Outline: as §1

[4] = variants of: B1; assay: self-cleavage kobs at 640 uM GlcN6P; higher = faster cleavage; RNA array
Outline: as §1

Variant | self-cleavage kobs at 160 uM GlcN6P [1] [s⁻¹] | self-cleavage kobs at 2500 uM GlcN6P [2] [s⁻¹] | self-cleavage kobs at 10000 uM GlcN6P [3] [s⁻¹] | self-cleavage kobs at 640 uM GlcN6P [4] [s⁻¹]
A42U U45C A52G G59U | < 1e-05 | – | – | –
U45C C61A | < 1e-05 | < 1e-05 | < 1e-05 | –
G41C A48G G63U | < 1e-05 | < 1e-05 | – | < 1e-05
U57C C58U | < 1e-05 | – | – | –
C50G U54A U65A | 0.00014 ± 3.8e-05 | 5.15e-05 ± 2e-05 | 5.29e-05 ± 1.5e-05 | –
G59C G62A | < 1e-05 | < 1e-05 | – | < 1e-05
G51C G60A U69A | < 1e-05 | – | – | –
G41C U54G C67U | < 1e-05 | – | – | –
A6G C16A G44U U45A | – | < 1e-05 | – | < 1e-05
C58A U69A | 4.65e-05 ± 2.2e-05 | 0.000101 ± 3.1e-05 | – | 9.55e-05 ± 2.9e-05
A6G G9U A64G | – | – | – | < 1e-05
U45C A48U U69C | < 1e-05 | – | – | < 1e-05
U56A G63C | < 1e-05 | < 1e-05 | – | –
G44C C58A | < 1e-05 | < 1e-05 | < 1e-05 | < 1e-05
A6C A53U C70U | – | – | – | 6.59e-05 ± 3.2e-05
C67G C68A | 7.05e-05 ± 2.1e-05 | 2.05e-05 ± 7.5e-06 | – | 3.85e-05 ± 1.1e-05
A6C C10U C11A U56C | – | < 1e-05 | – | < 1e-05
A6G A42C U56A C61G | – | – | – | < 1e-05
A52U G60A G66C | < 1e-05 | – | – | < 1e-05
A52C U65C | < 1e-05 | – | – | < 1e-05
G40U C61G | < 1e-05 | – | < 1e-05 | < 1e-05
C50A G51C U55C G60U | < 1e-05 | – | < 1e-05 | –
U57G U69G | 8.11e-05 ± 1.7e-05 | 4.87e-05 ± 1.6e-05 | – | 0.000113 ± 2.8e-05
U45G U57A G59A G62U | < 1e-05 | < 1e-05 | < 1e-05 | –
A6G C11U G60A C71U | – | < 1e-05 | – | < 1e-05
A42C U45G | < 1e-05 | – | – | < 1e-05

Variant | self-cleavage kobs at 160 uM GlcN6P [1] [s⁻¹] | self-cleavage kobs at 2500 uM GlcN6P [2] [s⁻¹] | self-cleavage kobs at 10000 uM GlcN6P [3] [s⁻¹] | self-cleavage kobs at 640 uM GlcN6P [4] [s⁻¹]
U47G C50A A64G U69G | 0.000158 ± 4.6e-05 | 0.000142 ± 3.1e-05 | 3.49e-05 ± 1.6e-05 | 0.000155 ± 3.9e-05
U46G G60C A64U | < 1e-05 | < 1e-05 | < 1e-05 | –
C61A A64C | < 1e-05 | < 1e-05 | < 1e-05 | < 1e-05
G44A U56A C70U | < 1e-05 | – | – | < 1e-05
A6C G9U A52G | – | – | < 1e-05 | < 1e-05
G41A G60A G63U | < 1e-05 | < 1e-05 | < 1e-05 | < 1e-05
A42G A48G U54A | < 1e-05 | – | – | –
A48G U57A | < 1e-05 | < 1e-05 | – | < 1e-05
G43U U69C C70G | < 1e-05 | – | – | < 1e-05
G51U U55G C58G C61G | 3.64e-05 ± 1.6e-05 | – | – | –
U47C U49A | < 1e-05 | < 1e-05 | < 1e-05 | –
A6G G41C A42C | – | < 1e-05 | – | < 1e-05
G60U G63C C70G | < 1e-05 | – | – | < 1e-05
C61U G62U | < 1e-05 | – | < 1e-05 | < 1e-05
G59C G63A | < 1e-05 | – | < 1e-05 | < 1e-05
C50G A64C | 7.93e-05 ± 2.1e-05 | 6.53e-05 ± 1.7e-05 | 2.52e-05 ± 1.2e-05 | –
A53G C58A C68G | 0.000121 ± 4.6e-05 | 0.000107 ± 2.5e-05 | – | –
U57C G63A | < 1e-05 | < 1e-05 | < 1e-05 | < 1e-05
U49G G60C | < 1e-05 | < 1e-05 | – | < 1e-05
G51U C61A C71A | < 1e-05 | < 1e-05 | – | < 1e-05
A53G U55A G66U | 0.000163 ± 4.6e-05 | 0.000351 ± 0.00011 | – | 0.000436 ± 9.4e-05
A6C C11U G51C C67G C68A | – | 0.00015 ± 3.5e-05 | – | 0.000105 ± 2.8e-05
C50U G51C | < 1e-05 | < 1e-05 | – | < 1e-05
U49C G51C | < 1e-05 | < 1e-05 | – | < 1e-05
A42C C50U | < 1e-05 | < 1e-05 | < 1e-05 | < 1e-05
G44C C50U U54C | < 1e-05 | – | – | < 1e-05

Variant | self-cleavage kobs at 160 uM GlcN6P [1] [s⁻¹] | self-cleavage kobs at 2500 uM GlcN6P [2] [s⁻¹] | self-cleavage kobs at 10000 uM GlcN6P [3] [s⁻¹] | self-cleavage kobs at 640 uM GlcN6P [4] [s⁻¹]
U69G C70G | 3.61e-05 ± 8.8e-06 | 3.6e-05 ± 9.1e-06 | – | 0.000255 ± 0.00013
U47G U54C | 0.000851 ± 0.00032 | 0.00468 ± 0.00094 | 0.0139 ± 0.0032 | 0.0026 ± 0.00053
C50A C67U C68U | 6.13e-05 ± 3.1e-05 | 0.000153 ± 6.2e-05 | – | 6.87e-05 ± 2.8e-05
A6G G9A A39C A42U U46A A53U C68U C71G | – | – | – | < 1e-05
A6G U30A A39U G60U | – | < 1e-05 | – | < 1e-05
A6G C50G A52U G59U | – | – | – | < 1e-05
U47A C58A | 2.53e-05 ± 1.2e-05 | 0.00024 ± 2.9e-05 | – | 7.69e-05 ± 1.4e-05
G43C C71G | < 1e-05 | < 1e-05 | – | < 1e-05
U49C U57C G60A G63A | < 1e-05 | < 1e-05 | – | < 1e-05
A6G G7A G13U A15C C68A C70A | – | – | – | < 1e-05
A42G U46G U65C C68U | < 1e-05 | – | – | –
A48C G62U | < 1e-05 | < 1e-05 | – | < 1e-05
C50G G63A A64U | 0.000145 ± 4.6e-05 | – | – | 0.000136 ± 4.5e-05
G63A C70G C71G | 5.57e-05 ± 1.4e-05 | – | – | 4.83e-05 ± 1.9e-05
A48G G66C | < 1e-05 | < 1e-05 | < 1e-05 | < 1e-05
G41C G51C A64C | < 1e-05 | – | – | –
A6G A12C G43C | – | < 1e-05 | – | < 1e-05
A6G G40A U54G C67A | – | < 1e-05 | – | < 1e-05
G43C G60C C68U | < 1e-05 | – | – | < 1e-05
G40U U49C U65G | < 1e-05 | < 1e-05 | – | –
G44U C50A | < 1e-05 | < 1e-05 | < 1e-05 | < 1e-05
A6C C16G G37C A39G U45G U47A | – | < 1e-05 | – | < 1e-05
A3C U45A U65A | – | 0.00657 ± 0.001 | – | 0.00508 ± 0.0012
G51U A52U U65G | < 1e-05 | < 1e-05 | – | < 1e-05
U46C A53G U54C | 0.000138 ± 2.9e-05 | 0.00116 ± 0.00021 | – | 0.000673 ± 0.00011
U45G G51C A64C | < 1e-05 | – | – | < 1e-05

Variant | self-cleavage kobs at 160 uM GlcN6P [1] [s⁻¹] | self-cleavage kobs at 2500 uM GlcN6P [2] [s⁻¹] | self-cleavage kobs at 10000 uM GlcN6P [3] [s⁻¹] | self-cleavage kobs at 640 uM GlcN6P [4] [s⁻¹]
G66A U69G | 8.36e-05 ± 2.3e-05 | 0.00012 ± 2.1e-05 | 4.74e-05 ± 1.7e-05 | 0.000427 ± 0.0001
A6G G9A A33C A39U G41U A53U | – | – | – | < 1e-05
U47A G63U | < 1e-05 | < 1e-05 | < 1e-05 | < 1e-05
A6G G38A C68G | – | – | – | < 1e-05
A52C A53G G62C | < 1e-05 | – | < 1e-05 | –
A6G A42C A52U C68A | – | < 1e-05 | – | < 1e-05
G44A U54C U65G C68G | < 1e-05 | < 1e-05 | – | < 1e-05
G62A U65G | < 1e-05 | < 1e-05 | < 1e-05 | < 1e-05
A42C G51U A53C C71G | < 1e-05 | – | – | –
U49G G63U | < 1e-05 | < 1e-05 | < 1e-05 | –
A6C U31G G40U G43A C50G G60C | – | – | < 1e-05 | < 1e-05
A6C G37U U49A | – | – | < 1e-05 | < 1e-05
C50A C67U C71G | 4.46e-05 ± 2.1e-05 | – | – | 0.000107 ± 2.5e-05
U55G G62C | < 1e-05 | < 1e-05 | < 1e-05 | < 1e-05
G43U U47G U65C | < 1e-05 | < 1e-05 | – | –
A6G C50G G51A | – | < 1e-05 | – | < 1e-05
G43C A48G C71G | < 1e-05 | < 1e-05 | – | < 1e-05
G43U U57A | < 1e-05 | < 1e-05 | – | –
A6C G9C G32A C50U A53G | – | < 1e-05 | – | < 1e-05
G59U C67U U69A | 6.91e-05 ± 2.5e-05 | – | – | –
U54A G66A | 0.00093 ± 0.00023 | 0.00986 ± 0.0017 | – | 0.00513 ± 0.00085
A6G C16A A52C | – | < 1e-05 | – | < 1e-05
G51U A64U | < 1e-05 | < 1e-05 | < 1e-05 | < 1e-05
A6C G44A G51U | – | < 1e-05 | – | < 1e-05
U45C U47C G62U C68U | < 1e-05 | – | – | –
